Experimental data from paper doi:10.1101/2023.10.12.561995 (bioRxiv, 2023).

Assays:
[1] = biological target: T1, SARS-CoV-2 RBD (wildtype), residues 319-541 of S-protein (SARS-CoV-2 wildtype, UniProt P0DTC2); test: BLI
[2] = biological target: T1, SARS-CoV-2 RBD (wildtype), residues …; test: cell-based or functional assay

B1: R1-26 (mAb, human IgG1) (antibody, V domains shown)
VH: EVQLVESGGGLVQPGGSLRLSCAASGFTFSSYWMSWVRQAPGKGLEWVANIKQDGSEKYYVDSVKGRFTISRDNAKNSLYLQMNSLRAEDTAVYYCARGQLGPWVGVDYWGQGTLVTVSS
VL: NFMLTQPHSVSESPGKTVTISCTGSSGSIASNYVQWYQQRPGSAPTTVIYEDNQRPSGVPDRFSGSIDSSSNSASLTISGLKTEDEADYYCQSYDSSNWVFGGGTQLTVL
- Kd [1]: 3.8 nM
- neutralisation of a pseudovirus displaying WT SARS-CoV-2 S-protein, IC50 [2]: 2.7 nM
